Measurements reported in patent US20210115102.

What was measured:
[1] = test system: ALU30-6
[2] = test system: ALU30-1
[3] = test system: ALU30-14
[4] = test system: ALU30-10
[5] = test system: ALU30-15
[6] = test system: ALU30-17
[7] = test system: ALU30-7
[8] = test system: ALU30-13
[9] = test system: ALU30-9
[10] = test system: ALU30-18
[11] = test system: ALU30-12
[12] = test system: ALU30-5
[13] = test system: ALU30-19
[14] = test system: ALU30-8
[15] = test system: ALU30-11
[16] = test system: ALU30-16
[17] = test system: ALU30-2
[18] = test system: ALU30-4
[19] = test system: ALU30-3
Chain of ALU30-3 (chain, as listed by the source): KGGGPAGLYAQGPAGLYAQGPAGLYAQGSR

Chain of ALU30-19 (chain, as listed by the source): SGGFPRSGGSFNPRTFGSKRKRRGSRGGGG
Chain of Hepsin, recombinant human (chain, as listed by the source): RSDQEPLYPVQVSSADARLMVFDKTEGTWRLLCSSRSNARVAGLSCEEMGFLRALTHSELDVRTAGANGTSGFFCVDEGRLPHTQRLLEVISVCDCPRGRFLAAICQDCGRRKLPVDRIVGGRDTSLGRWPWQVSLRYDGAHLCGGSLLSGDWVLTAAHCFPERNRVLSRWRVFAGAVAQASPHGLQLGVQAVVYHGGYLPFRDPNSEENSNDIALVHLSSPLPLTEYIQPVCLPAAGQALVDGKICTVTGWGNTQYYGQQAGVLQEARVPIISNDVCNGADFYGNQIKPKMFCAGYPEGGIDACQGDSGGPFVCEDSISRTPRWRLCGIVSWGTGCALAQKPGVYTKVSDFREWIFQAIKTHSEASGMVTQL
Chain of ALU30-1 (chain, as listed by the source): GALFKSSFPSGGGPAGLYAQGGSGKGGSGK
Chain of MMP-9, recombinant human (chain, as listed by the source): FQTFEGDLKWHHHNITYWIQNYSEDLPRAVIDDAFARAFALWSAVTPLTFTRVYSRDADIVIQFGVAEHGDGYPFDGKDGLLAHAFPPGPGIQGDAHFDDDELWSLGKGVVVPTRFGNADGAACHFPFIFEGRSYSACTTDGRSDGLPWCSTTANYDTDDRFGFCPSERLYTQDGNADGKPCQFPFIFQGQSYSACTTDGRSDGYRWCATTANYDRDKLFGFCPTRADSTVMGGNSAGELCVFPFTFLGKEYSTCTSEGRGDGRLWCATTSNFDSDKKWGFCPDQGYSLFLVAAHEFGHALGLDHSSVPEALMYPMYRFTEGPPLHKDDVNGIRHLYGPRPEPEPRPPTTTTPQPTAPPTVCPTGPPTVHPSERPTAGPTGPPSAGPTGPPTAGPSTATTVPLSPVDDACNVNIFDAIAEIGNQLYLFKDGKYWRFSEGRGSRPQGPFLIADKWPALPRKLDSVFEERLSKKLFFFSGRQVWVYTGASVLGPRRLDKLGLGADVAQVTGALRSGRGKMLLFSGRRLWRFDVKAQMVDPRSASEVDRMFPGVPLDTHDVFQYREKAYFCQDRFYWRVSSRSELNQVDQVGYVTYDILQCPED
Chain of ALU30-6 (chain, as listed by the source): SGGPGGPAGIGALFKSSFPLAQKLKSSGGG
Chain of ALU30-18 (chain, as listed by the source): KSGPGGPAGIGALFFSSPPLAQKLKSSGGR
Chain of ALU30-17 (chain, as listed by the source): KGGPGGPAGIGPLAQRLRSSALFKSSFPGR
Chain of ALU30-13 (chain, as listed by the source): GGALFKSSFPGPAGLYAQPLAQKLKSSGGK
Chain of ALU30-7 (chain, as listed by the source): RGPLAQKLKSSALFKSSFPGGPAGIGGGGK
Chain of ALU30-5 (chain, as listed by the source): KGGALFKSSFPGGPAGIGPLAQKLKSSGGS
Chain of ALU30-15 (chain, as listed by the source): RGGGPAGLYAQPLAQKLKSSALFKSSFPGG
Chain of ALU30-14 (chain, as listed by the source): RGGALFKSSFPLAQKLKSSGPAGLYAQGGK
Chain of ALU30-10 (chain, as listed by the source): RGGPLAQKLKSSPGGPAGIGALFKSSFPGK
Chain of Factor Xa, recombinant human (chain): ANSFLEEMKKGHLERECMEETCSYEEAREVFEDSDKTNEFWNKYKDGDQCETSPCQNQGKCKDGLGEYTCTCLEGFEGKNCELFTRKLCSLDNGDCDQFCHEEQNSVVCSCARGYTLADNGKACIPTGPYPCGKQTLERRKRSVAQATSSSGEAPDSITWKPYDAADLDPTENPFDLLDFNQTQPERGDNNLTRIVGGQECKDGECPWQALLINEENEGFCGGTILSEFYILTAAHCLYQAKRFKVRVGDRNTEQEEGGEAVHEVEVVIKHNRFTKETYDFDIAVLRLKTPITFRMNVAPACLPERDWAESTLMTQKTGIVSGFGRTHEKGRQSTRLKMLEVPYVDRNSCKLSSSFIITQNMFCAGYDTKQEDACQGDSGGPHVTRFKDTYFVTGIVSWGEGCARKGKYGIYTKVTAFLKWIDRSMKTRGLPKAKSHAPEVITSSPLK
Chain of ALU30-8 (chain, as listed by the source): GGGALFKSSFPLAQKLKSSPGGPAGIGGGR
Chain of ALU30-9 (chain, as listed by the source): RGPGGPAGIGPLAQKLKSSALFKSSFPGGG
Chain of ALU30-12 (chain, as listed by the source): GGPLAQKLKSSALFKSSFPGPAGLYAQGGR
Chain of ALU30-2 (chain, as listed by the source): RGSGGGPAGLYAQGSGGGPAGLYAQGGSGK
Chain of ALU30-4 (chain, as listed by the source): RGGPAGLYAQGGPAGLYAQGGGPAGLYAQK
Chain of ALU30-11 (chain, as listed by the source): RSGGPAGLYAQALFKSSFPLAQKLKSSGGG
Chain of ALU30-16 (chain, as listed by the source): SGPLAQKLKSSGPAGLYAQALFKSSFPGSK

Substance	30-mer substrate degradation (MSP-MS) [1]	30-mer substrate degradation (MSP-MS) [2]	30-mer substrate degradation (MSP-MS) [3]	30-mer substrate degradation (MSP-MS) [4]	30-mer substrate degradation (MSP-MS) [5]	30-mer substrate degradation (MSP-MS) [6]	30-mer substrate degradation (MSP-MS) [7]	30-mer substrate degradation (MSP-MS) [8]	30-mer substrate degradation (MSP-MS) [9]	30-mer substrate degradation (MSP-MS) [10]	30-mer substrate degradation (MSP-MS) [11]	30-mer substrate degradation (MSP-MS) [12]	30-mer substrate degradation (MSP-MS) [13]	30-mer substrate degradation (MSP-MS) [14]	30-mer substrate degradation (MSP-MS) [15]	30-mer substrate degradation (MSP-MS) [16]	30-mer substrate degradation (MSP-MS) [17]	30-mer substrate degradation (MSP-MS) [18]	30-mer substrate degradation (MSP-MS) [19]	further results
Factor Xa, recombinant human	all other peptides bearing a CTSL1_1 motif were cleaved by Factor Xa at either ALF|KSSFP (SEQ ID NO: 198) or ALFKS|SFP (SEQ ID NO: 198)	all other peptides bearing a CTSL1_1 motif were cleaved by Factor Xa at either ALF|KSSFP (SEQ ID NO: 198) or ALFKS|SFP (SEQ ID NO: 198)	all other peptides bearing a CTSL1_1 motif were cleaved by Factor Xa at either ALF|KSSFP (SEQ ID NO: 198) or ALFKS|SFP (SEQ ID NO: 198)	all other peptides bearing a CTSL1_1 motif were cleaved by Factor Xa at either ALF|KSSFP (SEQ ID NO: 198) or ALFKS|SFP (SEQ ID NO: 198)	all other peptides bearing a CTSL1_1 motif were cleaved by Factor Xa at either ALF|KSSFP (SEQ ID NO: 198) or ALFKS|SFP (SEQ ID NO: 198)	all other peptides bearing a CTSL1_1 motif were cleaved by Factor Xa at either ALF|KSSFP (SEQ ID NO: 198) or ALFKS|SFP (SEQ ID NO: 198)	all other peptides bearing a CTSL1_1 motif were cleaved by Factor Xa at either ALF|KSSFP (SEQ ID NO: 198) or ALFKS|SFP (SEQ ID NO: 198)	all other peptides bearing a CTSL1_1 motif were cleaved by Factor Xa at either ALF|KSSFP (SEQ ID NO: 198) or ALFKS|SFP (SEQ ID NO: 198)	all other peptides bearing a CTSL1_1 motif were cleaved by Factor Xa at either ALF|KSSFP (SEQ ID NO: 198) or ALFKS|SFP (SEQ ID NO: 198)	The peptide with the motif CTSL1_2 was cleaved at the lowest efficiency.	all other peptides bearing a CTSL1_1 motif were cleaved by Factor Xa at either ALF|KSSFP (SEQ ID NO: 198) or ALFKS|SFP (SEQ ID NO: 198)	the only library peptide with significant cleavage was Alu30-5, cleaved at the CTSL1_1 motif ALFKS|SFP (SEQ ID NO: 198), upstream of a FAPα_1 motif	Peptide Alu30-19 with this motif was completely degraded before the 5 min time point.	all other peptides bearing a CTSL1_1 motif were cleaved by Factor Xa at either ALF|KSSFP (SEQ ID NO: 198) or ALFKS|SFP (SEQ ID NO: 198)	all other peptides bearing a CTSL1_1 motif were cleaved by Factor Xa at either ALF|KSSFP (SEQ ID NO: 198) or ALFKS|SFP (SEQ ID NO: 198)	all other peptides bearing a CTSL1_1 motif were cleaved by Factor Xa at either ALF|KSSFP (SEQ ID NO: 198) or ALFKS|SFP (SEQ ID NO: 198)				
Hepsin, recombinant human						The ADAM17_1 motif was less efficiently cleaved than ADAM17_2				the alternate CTSL1_2 motif was also cleaved at a much slower rate than CTSL1_1			Alu30-19 was cleaved at all three motifs within the first 15 min of the reaction							apparent catalytic efficiency [3]: The authentic peptide Alu30-19, as well as the top cleaved peptides Alu30-8,-9, -12, and -14 all had apparent catalytic efficiencies on the same order of 10^5 M^-1s^-1.; cleavage efficiency of 30-mer library peptides [5]: it had slightly higher hepsin susceptibility; apparent catalytic efficiency [9]: The authentic peptide Alu30-19, as well as the top cleaved peptides Alu30-8,-9, -12, and -14 all had apparent catalytic efficiencies on the same order of 10^5 M^-1s^-1.; apparent catalytic efficiency [11]: The authentic peptide Alu30-19, as well as the top cleaved peptides Alu30-8,-9, -12, and -14 all had apparent catalytic efficiencies on the same order of 10^5 M^-1s^-1.; apparent catalytic efficiency [13]: The authentic peptide Alu30-19, as well as the top cleaved peptides Alu30-8,-9, -12, and -14 all had apparent catalytic efficiencies on the same order of 10^5 M^-1s^-1.; apparent catalytic efficiency [14]: The authentic peptide Alu30-19, as well as the top cleaved peptides Alu30-8,-9, -12, and -14 all had apparent catalytic efficiencies on the same order of 10^5 M^-1s^-1.
MMP-9, recombinant human	the FAPα_1 motif was also cleaved within the peptides bearing FAPα_1 directly followed by the CTSL1_1 motif at PGGPAG|GALF (SEQ ID NO: 247); these were lower efficiency cleavages	The single or double MMP14_1 motif-bearing peptides were next in the order.	The slowest peptides bear the MMP14_1 motif near the C-terminus of the 30-mer peptide.	the FAPα_1 motif was also cleaved within the peptides bearing FAPα_1 directly followed by the CTSL1_1 motif at PGGPAG|GALF (SEQ ID NO: 247); these were lower efficiency cleavages	The next most efficient substrates contained the pair of motifs where MMP14_1 was followed directly by ADAM17_2.		The FAPα_1 motif was not cleaved by MMP9, however, when followed either by the ADAM17_2 motif or the spacing residues GG.	The next most efficient substrates contained the pair of motifs where MMP14_1 was followed directly by ADAM17_2.	The FAPα_1 motif was not cleaved by MMP9, however, when followed either by the ADAM17_2 motif or the spacing residues GG.		The slowest peptides bear the MMP14_1 motif near the C-terminus of the 30-mer peptide.	The FAPα_1 motif was not cleaved by MMP9, however, when followed either by the ADAM17_2 motif or the spacing residues GG.		The FAPα_1 motif was not cleaved by MMP9, however, when followed either by the ADAM17_2 motif or the spacing residues GG.			The single or double MMP14_1 motif-bearing peptides were next in the order.	The most efficient MMP9 substrates were those that bore three-repeats of the MMP14_1 motif.	The most efficient MMP9 substrates were those that bore three-repeats of the MMP14_1 motif.	product formation at individual bonds (MSP-MS) [2]: the specific cleavage of the Alu30-2 peptide was more efficient than the Alu30-1 peptide; product formation at individual bonds (MSP-MS) [17]: the specific cleavage of the Alu30-2 peptide was more efficient than the Alu30-1 peptide
Thrombin, recombinant human	the CTSL1_2 motif had lower cleavage activity than did the CTSL1_1 motif (peptides Alu30-18 vs Alu30-6)	The peptides Alu30-1 and Alu30-3 were the most rapidly cleaved in the library	Thrombin showed higher activity than Factor Xa, and it cleaved each of the 30-mer peptides.	Thrombin showed higher activity than Factor Xa, and it cleaved each of the 30-mer peptides.	the peptides Alu30-12, Alu30-13 and Alu30-15, with MMP14_1 motifs in combination with ADAM17_2 and CTSL1_1, were cleaved at lower efficiency by thrombin	The two alternate ADAM17 motifs were cleaved with similar efficiency (peptides Alu30-17 vs Alu30-9).	Thrombin showed higher activity than Factor Xa, and it cleaved each of the 30-mer peptides.	the peptides Alu30-12, Alu30-13 and Alu30-15, with MMP14_1 motifs in combination with ADAM17_2 and CTSL1_1, were cleaved at lower efficiency by thrombin	The two alternate ADAM17 motifs were cleaved with similar efficiency (peptides Alu30-17 vs Alu30-9).	the CTSL1_2 motif had lower cleavage activity than did the CTSL1_1 motif (peptides Alu30-18 vs Alu30-6)	the peptides Alu30-12, Alu30-13 and Alu30-15, with MMP14_1 motifs in combination with ADAM17_2 and CTSL1_1, were cleaved at lower efficiency by thrombin	Thrombin showed higher activity than Factor Xa, and it cleaved each of the 30-mer peptides.	Thrombin showed higher activity than Factor Xa, and it cleaved each of the 30-mer peptides.	Thrombin showed higher activity than Factor Xa, and it cleaved each of the 30-mer peptides.	Thrombin showed higher activity than Factor Xa, and it cleaved each of the 30-mer peptides.	Thrombin showed higher activity than Factor Xa, and it cleaved each of the 30-mer peptides.	The peptide Alu30-2, bearing two MMP14_1 motifs, was less susceptible to thrombin	Alu30-4 was also an efficient substrate	The peptides Alu30-1 and Alu30-3 were the most rapidly cleaved in the library	
